We go through 17 molecules from patent US20160046943, “Interferon Production Using Short RNA Duplexes” (YALE UNIVERSITY, published 2016).

Where two headings read alike, the source gives them in different places.

Data set [1] deals with T1, RIG-I (full length) (Homo sapiens, UniProt O95786 O95786:1-925).
T1 sequence: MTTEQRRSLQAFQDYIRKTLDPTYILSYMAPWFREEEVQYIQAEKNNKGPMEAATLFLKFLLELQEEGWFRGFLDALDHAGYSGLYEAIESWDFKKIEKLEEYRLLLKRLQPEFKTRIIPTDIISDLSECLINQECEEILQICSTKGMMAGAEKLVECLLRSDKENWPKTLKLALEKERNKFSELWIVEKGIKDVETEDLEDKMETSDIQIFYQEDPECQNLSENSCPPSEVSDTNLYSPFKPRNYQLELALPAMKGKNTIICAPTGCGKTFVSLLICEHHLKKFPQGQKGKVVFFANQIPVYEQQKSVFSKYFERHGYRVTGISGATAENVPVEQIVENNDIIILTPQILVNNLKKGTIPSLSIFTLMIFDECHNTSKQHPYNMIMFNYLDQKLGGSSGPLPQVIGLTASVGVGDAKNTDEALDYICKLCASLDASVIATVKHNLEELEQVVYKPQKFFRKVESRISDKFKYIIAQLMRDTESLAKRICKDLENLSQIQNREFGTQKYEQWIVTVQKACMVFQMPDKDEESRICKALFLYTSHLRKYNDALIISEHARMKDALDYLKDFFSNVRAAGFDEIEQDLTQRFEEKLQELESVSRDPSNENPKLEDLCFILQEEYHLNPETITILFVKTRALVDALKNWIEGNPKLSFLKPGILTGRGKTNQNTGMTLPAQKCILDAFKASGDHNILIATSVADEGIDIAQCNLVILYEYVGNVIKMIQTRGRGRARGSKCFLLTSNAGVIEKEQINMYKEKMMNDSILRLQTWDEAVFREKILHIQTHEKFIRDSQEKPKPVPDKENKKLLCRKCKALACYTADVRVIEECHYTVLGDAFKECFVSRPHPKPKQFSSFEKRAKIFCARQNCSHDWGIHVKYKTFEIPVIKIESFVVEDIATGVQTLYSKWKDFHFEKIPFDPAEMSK
To be noted: Km,RNA per estimated poly I:C strand, ATPase assay at 5 mM ATP.

Data set [2] concerns the target T1, RIG-I (full length). More on the design: K half: unit not given here. As to conditions: 5'-OH.
Data set [3] addresses T1, RIG-I (full length). Description: Km,RNA, ATPase assay at 5 mM ATP; SD 3.4. To be noted: tags: pET-SUMO (His-SUMO vector, Ni-NTA purified), E. coli Rosetta II(DE3); palindromic blunt duplex. On the procedure: (§1) ATPase activity of RIG-I was measured with the NADH-coupled ATPase assay adapted from previously described protocols (Luo et al., 2011, Cell 147:409-422). Experiments were set up in 50 μl reaction volumes in 96 well format using Corning clear half-area flat bottom plates (#3695). Each 50 μl reaction contained 10 μl of 5×NADH enzyme buffer (1 mM NADH, 100 U of lactate dehydrogenase/mL, 500 U/mL of pyruvate kinase/mL, and 2.5 mM phosphoenolpyruvate), 5-10 nM of RIG-I, 5 μl of varying amounts of either RNA or ATP, and a remaining volume of 25 mM 3-(N-morpholino)propanesulfonic acid (MOPS) pH 7.4, 150 mM KCl, 2 mM DTT, and 0.1% Triton X-100. The rate of ATP hydrolysis was indirectly determined by monitoring the loss of NADH by reading the absorbance at 340 nm using a Biotek Synergy H1 plate reader.
(§2) To more precisely define the minimal duplex length for enzymatic activation of RIG-I, the steady-state kinetic parameters for RIG-I activation by RNA hairpins and double-stranded duplexes ranging in size from 8 to 30 base pairs, was measured with and without a 5′triphosphate (RNAs listed in Table 2). […]

In data set [4] the target is T1, RIG-I (full length). Description: Km,RNA (apparent binding constant), ATPase assay at 5 mM ATP, 5 nM RIG-I, MOPS pH 7.4, 150 mM KCl; SD 0.20. To be noted: tags: pET-SUMO (His-SUMO vector, Ni-NTA purified), E. coli Rosetta II(DE3); palindromic blunt duplex. Here is the method: as §1, §2
The target of data set [5] is T1, RIG-I (full length). Description: Km,RNA, ATPase assay at 5 mM ATP; SD 0.50. As to conditions: tags: pET-SUMO (His-SUMO vector, Ni-NTA purified), E. coli Rosetta II(DE3). On the procedure: as §1, §2
Data set [6] deals with T1, RIG-I (full length). Description: Km,RNA, ATPase assay at 5 mM ATP; SD 0.40. To be noted: tags: pET-SUMO (His-SUMO vector, Ni-NTA purified), E. coli Rosetta II(DE3); hairpin, 8 bp, UUCG tetraloop, blunt end. Here is the method: as §1, §2
For data set [7], the target named is T1, RIG-I (full length). Description: Km,RNA, ATPase assay at 5 mM ATP; SD 1.0. As to conditions: tags: pET-SUMO (His-SUMO vector, Ni-NTA purified), E. coli Rosetta II(DE3). Here is the method:
as §1
To more precisely define the minimal duplex length for enzymatic activation of RIG-I, the steady-state kinetic parameters for RIG-I activation by RNA hairpins and double-stranded duplexes ranging in size from 8 to 30 base pairs, was measured with and without a 5′triphosphate (RNAs listed in Table 2). In order to evaluate the respective roles of ATP and RNA in activation of the RIG-I:RNA complex, the Michaelis constant for ATP (K_{m,ATP}) at saturating RNA (500 nM) and the Michaelis constant for RNA (K_{m,RNA}) at saturating ATP (5 mM) was measured for each RNA construct (kcat, K_{m,ATP} and K_{m,RNA} summary in Table 4).

Data set [8] deals with T1, RIG-I (full length). As to the kind of experiment: Km,RNA, ATPase assay at 5 mM ATP; SD 15. As to conditions: tags: pET-SUMO (His-SUMO vector, Ni-NTA purified), E. coli Rosetta II(DE3); palindromic blunt duplex. Here is the method: as §1, §2
In data set [9] the target is T1, RIG-I (full length). Description: Km,RNA, ATPase assay at 5 mM ATP; SD 1.1. As to conditions: tags: pET-SUMO (His-SUMO vector, Ni-NTA purified), E. coli Rosetta II(DE3); palindromic blunt duplex. On the procedure: as §1, §2
For data set [10], the target named is T1, RIG-I (full length). Description: Km,RNA, ATPase assay at 5 mM ATP; SD 1.5. As to conditions: tags: pET-SUMO (His-SUMO vector, Ni-NTA purified), E. coli Rosetta II(DE3); palindromic blunt duplex. On the procedure:
as §1, §2

In data set [11] the target is T1, RIG-I (full length). As to the kind of experiment: Km,RNA, ATPase assay at 5 mM ATP; SD 0.20. As to conditions: tags: pET-SUMO (His-SUMO vector, Ni-NTA purified), E. coli Rosetta II(DE3); palindromic blunt duplex. Here is the method:
as §1, §2

In data set [12] the target is T1, RIG-I (full length). Description: Km,RNA, ATPase assay at 5 mM ATP; SD 0.10. To be noted: tags: pET-SUMO (His-SUMO vector, Ni-NTA purified), E. coli Rosetta II(DE3); palindromic blunt duplex. Here is the method:
as §1, §2

For data set [13], the target named is T1, RIG-I (full length). Description: Km,RNA, ATPase assay at 5 mM ATP; SD 1.3. As to conditions: tags: pET-SUMO (His-SUMO vector, Ni-NTA purified), E. coli Rosetta II(DE3); palindromic blunt duplex. Here is the method:
as §1, §2

Regarding poly I:C fraction A1 (~500 bp), the K half with RIG-I (full length) [1] was 20 nM. With poly I:C fraction A7 (~25 bp), in the data set with RIG-I (full length) [1], the K half is 20 nM.

LMW poly I:C registered an activity in the data set with RIG-I (full length) [2] (ATPase kcat, Km,ATP 690 uM) of 4.9 s⁻¹. This molecule also had a K half in the data set with RIG-I (full length) [2] (Km,RNA, ATPase assay at 5 mM ATP, SD 1.1) of 2.4.

B1: GC18 (dsRNA)
RNA 1: GCGCGCGCGCGCGCGCGC
RNA 2: GCGCGCGCGCGCGCGCGC
modifications: 5'-OH
In the case of B1, in the data set with RIG-I (full length) [3], the “apparent K (half saturation)” value worked out at 26.7 nM.

B2: 5'pppGC10 (dsRNA)
RNA 1: GGCGCGCGCC
RNA 2: GGCGCGCGCC
modifications: 5'-triphosphate
Consider B2, for which the “apparent K (half saturation)” value with RIG-I (full length) [4] is 1.16 nM.

B3: 5'ppp10L (ssRNA)
RNA: GGACGUACGUUUCGACGUACGUCC
modifications: 5'-triphosphate
Consider B3, for which the “apparent K (half saturation)” value in the data set with RIG-I (full length) [5] (hairpin, 10 bp, UUCG tetraloop, blunt end) amounted to 4.46 nM.

B4: 5'ppp8L (ssRNA)
RNA: GGCGCGGCUUCGGCCGCGCC
modifications: 5'-triphosphate
Regarding B4, in the data set with RIG-I (full length) [6], the “apparent K (half saturation)” value is 5.16 nM.

B5: 5'pppGC22 (dsRNA)
RNA 1: GGCGCGCGCGCGCGCGCGCGCC
RNA 2: GGCGCGCGCGCGCGCGCGCGCC
modifications: 5'-triphosphate
B5: the “apparent K (half saturation)” value with RIG-I (full length) [7] (palindromic blunt duplex, two 5'ppp ends) is 3.58 nM.

B6: GC8 (dsRNA)
RNA 1: GCGCGCGC
RNA 2: GCGCGCGC
modifications: 5'-OH
Turning to B6, the “apparent K (half saturation)” value with RIG-I (full length) [8] was determined as 91.4 nM.

B7: 5'ppp30L (ssRNA)
RNA: GGAUCGAUCGAUCGAUCGGCAUCGAUCGGCUUCGGCCGAUCGAUGCCGAUCGAUCGAUCGAUCC
modifications: 5'-triphosphate
Take B7: the “apparent K (half saturation)” value with RIG-I (full length) [7] (hairpin, 30 bp, UUCG tetraloop, blunt end) came to 10.8 nM.

B8: GC22 (dsRNA)
RNA 1: GCGCGCGCGCGCGCGCGCGCGC
RNA 2: GCGCGCGCGCGCGCGCGCGCGC
modifications: 5'-OH
For B8, the “apparent K (half saturation)” value with RIG-I (full length) [9] is 27.3 nM.

B9: 5'ppp20L (ssRNA)
RNA: GGAUCGAUCGAUCGAUCGGCUUCGGCCGAUCGAUCGAUCGAUCC
modifications: 5'-triphosphate
B9: in the data set with RIG-I (full length) [5], the “apparent K (half saturation)” value worked out at 10.1 nM.

B10: GC12 (dsRNA)
RNA 1: GCGCGCGCGCGC
RNA 2: GCGCGCGCGCGC
modifications: 5'-OH
Regarding B10, in the data set with RIG-I (full length) [7] (palindromic blunt duplex), the “apparent K (half saturation)” value was 13.1 nM.

B11: GC10 (dsRNA)
RNA 1: GCGCGCGCGC
RNA 2: GCGCGCGCGC
modifications: 5'-OH
For B11, the “apparent K (half saturation)” value in the data set with RIG-I (full length) [10] came to 24.4 nM.

B12: 5'pppGC12 (dsRNA)
RNA 1: GGCGCGCGCGCC
RNA 2: GGCGCGCGCGCC
modifications: 5'-triphosphate
With B12, the “apparent K (half saturation)” value with RIG-I (full length) [11] was 2.33 nM.

B13: 5'pppCM12 (dsRNA)
RNA 1: GGACGUACGUCC
RNA 2: GGACGUACGUCC
modifications: 5'-triphosphate
Take B13: the “apparent K (half saturation)” value with RIG-I (full length) [12] was found to be 2.62 nM.

B14: GC14 (dsRNA)
RNA 1: GCGCGCGCGCGCGC
RNA 2: GCGCGCGCGCGCGC
modifications: 5'-OH
Consider B14, for which, in the data set with RIG-I (full length) [13], the “apparent K (half saturation)” value amounted to 23.2 nM.
